{"source": "paper PMC4897735", "about": "“Acousto-microfluidics for screening of ssDNA aptamer”", "biological_target": "prostate-specific antigen (PSA) (UniProt P07288 25-261)", "sequence (P07288 25-261)": "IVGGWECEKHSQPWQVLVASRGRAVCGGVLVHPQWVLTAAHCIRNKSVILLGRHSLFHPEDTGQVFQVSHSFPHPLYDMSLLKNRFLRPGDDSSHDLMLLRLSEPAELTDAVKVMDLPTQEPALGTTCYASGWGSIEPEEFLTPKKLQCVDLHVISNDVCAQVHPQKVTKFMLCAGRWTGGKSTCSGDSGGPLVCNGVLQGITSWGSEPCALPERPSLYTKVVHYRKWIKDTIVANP", "assay": "SPR; AS2 3-50 nM, 2 mM MgCl2; SPR (Biacore CM5): PBS pH 7.4, 2 mM MgCl2 (PBSM), 25 °C, 15 µl/min, blank flow cell reference", "conditions": "protein: commercial"}
{"binder": "GGGCGGGGCGGACGAGACAGTAAGGGCTGTGGGTGTGGTG (ssDNA)", "note": "[AS2]", "values": [{"measurement": "Kd", "value": 700, "unit": "pM"}]}
